These results are taken from publication PMC4585563, “Small angle X-ray scattering studies of CTNNBL1 dimerization and CTNNBL1/CDC5L complex” (Scientific Reports, 2015).

B1: CTNNBL1^E278A (domain or fragment, human, UniProt Q8WYA6 77-563, looked up)
chain: LDESSVKKMILTFEKRSYKNQELRIKFPDNPEKFMESELDLNDIIQEMHVVATMPDLYHLLVELNAVQSLLGLLGHDNTDVSIAVVDLLQELTDIDTLHESEEGAEVLIDALVDGQVVALLVQNLERLDESVKEEADGVHNTLAIVENMAEFRPEMCTEGAQQGLLQWLLKRLKAKMPFDANKLYCSEVLAILLQDNDENRALLGELDGIDVLLQQLSVFKRHNPSTAEEQEMMENLFDSLCSCLMLSSNRERFLKGEGLQLMNLMLREKKISRSSALKVLDHAMIGPEGTDNCHKFVDILGLRTIFPLFMKSPRKIKKVGTTEKEHEEHVCSILASLLRNLRGQQRTRLLNKFTENDSEKVDRLMELHFKYLGAMQVADKKIEGEKHDMVRRGEIIDNDTEEEFYLRRLDAGLFVLQHICYIMAEICNANVPQIRQRVHQILNMRGSSIKIVRHIIKEYAENIGDGRSPEFRENEQKRILGLLENF
notes: human CTNNBL1, residues 77-563, point mutant made by site-directed mutagenesis; source: E. coli, purified as wild-type CTNNBL1; not shown: 6xHis, N-terminal, cleaved; VHb (bacterial hemoglobin), N-terminal, cleaved
B2: CTNNBL1^Q199R (domain or fragment, human, UniProt Q8WYA6 77-563, looked up)
chain: B1 chain with Q123R, A202E
notes: as for B1
B3: CTNNBL1^G148R/Q192R/Q199R (domain or fragment, human, UniProt Q8WYA6 77-563, looked up)
chain: B1 chain with G72R, Q116R, Q123R, A202E
notes: human CTNNBL1, residues 77-563, triple-point mutant (ARM I and ARM II); also called ARM I and ARM II mutant; source: E. coli, purified as wild-type CTNNBL1; not shown: 6xHis, N-terminal, cleaved; VHb (bacterial hemoglobin), N-terminal, cleaved
B4: CTNNBL1^Q238A/E278A/E282A (domain or fragment, human, UniProt Q8WYA6 77-563, looked up)
chain: B1 chain with Q162A, E206A
notes: human CTNNBL1, residues 77-563, triple-point mutant (ARM III and ARM IV); also called Arm III and Arm IV mutant; source: E. coli, purified as wild-type CTNNBL1; not shown: 6xHis, N-terminal, cleaved; VHb (bacterial hemoglobin), N-terminal, cleaved
B5: CTNNBL1^L87R/I101R (domain or fragment, human, UniProt Q8WYA6 77-563, looked up)
chain: B1 chain with L11R, I25R, A202E
notes: human CTNNBL1, residues 77-563, double-point mutant (capping region); also called capping region mutant; source: E. coli, purified as wild-type CTNNBL1; not shown: 6xHis, N-terminal, cleaved; VHb (bacterial hemoglobin), N-terminal, cleaved
B6: CTNNBL1^Q192R (domain or fragment, human, UniProt Q8WYA6 77-563, looked up)
chain: B1 chain with Q116R, A202E
notes: as for B1
B7: CTNNBL1^G148R (domain or fragment, human, UniProt Q8WYA6 77-563, looked up)
chain: B1 chain with G72R, A202E
notes: as for B1
B8: CTNNBL1^E282A (domain or fragment, human, UniProt Q8WYA6 77-563, looked up)
chain: B1 chain with A202E, E206A
notes: as for B1
B9: CTNNBL1^I101R (domain or fragment, human, UniProt Q8WYA6 77-563, looked up)
chain: B1 chain with I25R, A202E
notes: as for B1
B10: CTNNBL1^L87R (domain or fragment, human, UniProt Q8WYA6 77-563, looked up)
chain: B1 chain with L11R, A202E
notes: as for B1
B11: CTNNBL1 (residues 77-563), wild type (domain or fragment, human, UniProt Q8WYA6 77-563, looked up)
chain: B1 chain with A202E
notes: human CTNNBL1, residues 77-563, amplified from a human cDNA library; Dimer by SAXS at 0-200 mM NaCl and by SEC at 150 mM NaCl; monomer at 300-400 mM NaCl; also called native CTNNBL1; wild-type CTNNBL1; source: E. coli BL21(DE3)-T1R, purified (Ni-NTA, TEV protease, Ni-NTA, Superdex200); not shown: 6xHis, N-terminal, cleaved; VHb (bacterial hemoglobin), N-terminal, cleaved
B12: CDC5L^197-285 (domain or fragment, human, UniProt Q99459 197-285, looked up)
chain: EIQKKRKRKRGVDYNAEIPFEKKPALGFYDTSEENYQALDADFRKLRQQDLDGELRSEKEGRDRKKDKQHLKRKKESDLPSAILQTSGV
notes: CDC5L of the human hPrp19/CDC5L complex, residues 197-285; holds NLS3 (residues 200-206: KKRKRKR); cloned into pPosKJ; pPosKJ adds 6xHis and VHb, both removed only by TEV protease; the His-tagged proteins were made without TEV, so VHb should still be on the chain in the pull-down; also called 6xHis-tagged CDC5L 197-285; source: E. coli, purified as CTNNBL1 with 300 mM NaCl in the buffers, without …
B13: CDC5L^141-285 (domain or fragment, human, UniProt Q99459 141-285, looked up)
chain: PIDMDEDELEMLSEARARLANTQGKKAKRKAREKQLEEARRLAALQKRRELRAAGIEIQKKRKRKRGVDYNAEIPFEKKPALGFYDTSEENYQALDADFRKLRQQDLDGELRSEKEGRDRKKDKQHLKRKKESDLPSAILQTSGV
notes: CDC5L of the human hPrp19/CDC5L complex, residues 141-285; holds NLS3 (residues 200-206: KKRKRKR); cloned into pET-30a(+); also called 6xHis-tagged CDC5L 141-285; source: E. coli, purified as CTNNBL1 with 300 mM NaCl in the buffers, without TEV protease
B14: CDC5L^141-377 (domain or fragment, human, UniProt Q99459 141-377, looked up)
chain: PIDMDEDELEMLSEARARLANTQGKKAKRKAREKQLEEARRLAALQKRRELRAAGIEIQKKRKRKRGVDYNAEIPFEKKPALGFYDTSEENYQALDADFRKLRQQDLDGELRSEKEGRDRKKDKQHLKRKKESDLPSAILQTSGVSEFTKKRSKLVLPAPQISDAELQEVVKVGQASEIARQTAEESGITNSASSTLLSEYNVTNNSVALRTPRTPASQDRILQEAQNLMALTNVDT
notes: CDC5L of the human hPrp19/CDC5L complex, residues 141-377 of the N-terminal domain; holds NLS3 (residues 200-206: KKRKRKR); cloned into pET-30a(+); also called 6xHis-tagged CDC5L 141-377; source: E. coli, purified as CTNNBL1 with 300 mM NaCl in the buffers, without TEV protease
B15: CDC5L^141-235 (domain or fragment, human, UniProt Q99459 141-235, looked up)
chain: PIDMDEDELEMLSEARARLANTQGKKAKRKAREKQLEEARRLAALQKRRELRAAGIEIQKKRKRKRGVDYNAEIPFEKKPALGFYDTSEENYQAL
notes: CDC5L of the human hPrp19/CDC5L complex, residues 141-235; holds NLS3 (residues 200-206: KKRKRKR); cloned into pPosKJ; pPosKJ adds 6xHis and VHb, both removed only by TEV protease; the His-tagged proteins were made without TEV, so VHb should still be on the chain in the pull-down; also called 6xHis-tagged CDC5L 141-235; source: E. coli, purified as CTNNBL1 with 300 mM NaCl in the buffers, without …

A word on the stoichiometry N: it is a count of units in the complex or per binding partner.

Residue numbers refer to the chain shown, from its start. In names and notes the source's numbering stands.

One data set concerns the molecule itself. Put plainly: SEC; Superdex 200 10/300, 500 μl of 2 mg/ml protein, 0.5 ml/min, 40 mM Tris-HCl pH 8.0, 150 mM NaCl; molecular weight from calibration standards.
Details: not given
(Size exclusion chromatography separates by hydrodynamic size, large species first.)
Take B1: the “stoichiometry N” value was 2.

Turning to B2, the “stoichiometry N” value was 2. Take B3: the “stoichiometry N” value amounted to 2. In the case of B4, the “stoichiometry N” value is 2. Turning to B5, the “stoichiometry N” value was determined as 2.

Regarding B6, the “stoichiometry N” value stood at 2.

B7: the “stoichiometry N” value worked out at 2.

Consider B8, for which the “stoichiometry N” value stood at 2. As to B9, the “stoichiometry N” value was determined as 2. Consider B10, for which the “stoichiometry N” value came to 2.

Another data set concerns the molecule itself. Put plainly: SAXS; CTNNBL1 alone in solution, 200 mM NaCl, 4 °C, 1.0-5.0 mg/ml; oligomeric state from molecular mass (absolute I(0)), Guinier and p(r) analysis.
Details: not given
B11: the “stoichiometry N” value came to 2.

The target of another data set is B11. Put plainly: pull-down; 6xHis-tagged CDC5L truncations mixed with untagged CTNNBL1 in 50 mM Tris-HCl pH 8.0, 300 mM NaCl, dialysed against 50 mM Tris-HCl without NaCl at 4 °C overnight, loaded on Ni-NTA resin, washed with 10 mM imidazole, eluted with 300 mM imidazole, SDS-PAGE. Conditions: both partners purified.
In the case of B12, the binding result was “binds”. The same measure, in the same setting: with B13 the entry was “binds”; with B14, “binds”; with B15, “binds”.

A further data set concerns the molecule itself. Put plainly: SEC; CDC5L truncations alone; data not shown.
Details: not given
Turning to B13, the “stoichiometry N” value is 2. Regarding B14, the “stoichiometry N” value turned out to be 2.

The next data set deals with the molecule itself. The data set can be described thus: SAXS; CTNNBL1 alone in solution, 100 mM NaCl, 4 °C, 1.0-5.0 mg/ml; oligomeric state from molecular mass (absolute I(0)), Guinier and p(r) analysis.
Details: not given
Consider B11, for which the “stoichiometry N” value was found to be 2.

A further data set concerns the molecule itself. Put plainly: SAXS; CTNNBL1 alone in solution, 0 mM NaCl, 4 °C, 1.0-5.0 mg/ml; oligomeric state from molecular mass (absolute I(0)), Guinier and p(r) analysis.
Details: not given
As to B11, the “stoichiometry N” value stood at 2.
